Patent US20260015399A1 (Boehringer Ingelheim, published 2026)
*1 amine or outer side, *2 acyl side, *3 side chain or, on linkers, in order; H or OH if unused. Side-chain parts run from the residue outwards. The star is where a group is joined. C18 diacid = O=C(O)CCCCCCCCCCCCCCCCC(=O)*; γGlu = O=C(O)[C@H](CCC(=O)[*:2])N[*:1]; Isovaleryl = CC(C)CC(=O)*; Ahx = NCCCCCC(=O)O

T1: human NPY2 receptor (human, UniProt P49146 1-381)
T1 construct: whole, on cells; also called hNPY2-R; hNPY2R
T1 sequence (looked up): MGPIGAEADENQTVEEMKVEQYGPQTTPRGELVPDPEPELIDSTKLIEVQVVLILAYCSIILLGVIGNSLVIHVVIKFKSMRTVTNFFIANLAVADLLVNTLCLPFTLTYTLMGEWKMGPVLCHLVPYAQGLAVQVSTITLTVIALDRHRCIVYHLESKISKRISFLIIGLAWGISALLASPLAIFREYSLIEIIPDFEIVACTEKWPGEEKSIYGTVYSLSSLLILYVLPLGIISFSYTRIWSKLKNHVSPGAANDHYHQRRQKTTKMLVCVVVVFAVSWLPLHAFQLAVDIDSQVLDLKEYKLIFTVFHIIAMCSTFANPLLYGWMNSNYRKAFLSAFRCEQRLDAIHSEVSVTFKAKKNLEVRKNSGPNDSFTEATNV


The binders below were run against T1, human NPY2 receptor (assay: RLB: displacement of 125I-PYY(1-36) from hNPY2R membranes).

Binder	Ki [nM]
Isovaleryl-APAK([Ahx-γGlu-C18 diacid])PEEDASPEELQRYYVSLRHQYNWLTRQRY-NH2 (SMILES CC(C)CC(=O)N[C@@H](C)C(=O)N1CCC[C@H]1C(=O)N[C@@H](C)C(=O)N[C@@H](CCCCNC(=O)CCCCCNC(=O)CC[C@H](NC(=O)CCCCCCCCCCCCCCCCC(=O)O)C(=O)O)C(=O)N1CCC[C@H]1C(=O)N[C@@H](CCC(=O)O)C(=O)N[C@@H](CCC(=O)O)C(=O)N[C@@H](CC(=O)O)C(=O)N[C@@H](C)C(=O)N[C@@H](CO)C(=O)N1CCC[C@H]1C(=O)N[C@@H](CCC(=O)O)C(=O)N[C@@H](CCC(=O)O)C(=O)N[C@@H](CC(C)C)C(=O)N[C@@H](CCC(N)=O)C(=O)N[C@@H](CCCNC(=N)N)C(=O)N[C@@H](Cc1ccc(O)cc1)C(=O)N[C@@H](Cc1ccc(O)cc1)C(=O)N[C@H](C(=O)N[C@@H](CO)C(=O)N[C@@H](CC(C)C)C(=O)N[C@@H](CCCNC(=N)N)C(=O)N[C@@H](Cc1c[nH]cn1)C(=O)N[C@@H](CCC(N)=O)C(=O)N[C@@H](Cc1ccc(O)cc1)C(=O)N[C@@H](CC(N)=O)C(=O)N[C@@H](Cc1c[nH]c2ccccc12)C(=O)N[C@@H](CC(C)C)C(=O)N[C@H](C(=O)N[C@@H](CCCNC(=N)N)C(=O)N[C@@H](CCC(N)=O)C(=O)N[C@@H](CCCNC(=N)N)C(=O)N[C@@H](Cc1ccc(O)cc1)C(N)=O)[C@@H](C)O)C(C)C) [Compound 32]	13.6
Isovaleryl-APAK([Ahx-γGlu-C18 diacid])PEEAATPEEIQRYYVSLRHYYNWLTRQRY-NH2 (SMILES CC[C@H](C)[C@H](NC(=O)[C@H](CCC(=O)O)NC(=O)[C@H](CCC(=O)O)NC(=O)[C@@H]1CCCN1C(=O)[C@@H](NC(=O)[C@H](C)NC(=O)[C@H](C)NC(=O)[C@H](CCC(=O)O)NC(=O)[C@H](CCC(=O)O)NC(=O)[C@@H]1CCCN1C(=O)[C@H](CCCCNC(=O)CCCCCNC(=O)CC[C@H](NC(=O)CCCCCCCCCCCCCCCCC(=O)O)C(=O)O)NC(=O)[C@H](C)NC(=O)[C@@H]1CCCN1C(=O)[C@H](C)NC(=O)CC(C)C)[C@@H](C)O)C(=O)N[C@@H](CCC(N)=O)C(=O)N[C@@H](CCCNC(=N)N)C(=O)N[C@@H](Cc1ccc(O)cc1)C(=O)N[C@@H](Cc1ccc(O)cc1)C(=O)N[C@H](C(=O)N[C@@H](CO)C(=O)N[C@@H](CC(C)C)C(=O)N[C@@H](CCCNC(=N)N)C(=O)N[C@@H](Cc1c[nH]cn1)C(=O)N[C@@H](Cc1ccc(O)cc1)C(=O)N[C@@H](Cc1ccc(O)cc1)C(=O)N[C@@H](CC(N)=O)C(=O)N[C@@H](Cc1c[nH]c2ccccc12)C(=O)N[C@@H](CC(C)C)C(=O)N[C@H](C(=O)N[C@@H](CCCNC(=N)N)C(=O)N[C@@H](CCC(N)=O)C(=O)N[C@@H](CCCNC(=N)N)C(=O)N[C@@H](Cc1ccc(O)cc1)C(N)=O)[C@@H](C)O)C(C)C) [Compound 36]	1.25
Isovaleryl-APAK([Ahx-γGlu-C18 diacid])PEEDAEPEELQRYYISLRHYYNWLTRQRY-NH2 (SMILES CC[C@H](C)[C@H](NC(=O)[C@H](Cc1ccc(O)cc1)NC(=O)[C@H](Cc1ccc(O)cc1)NC(=O)[C@H](CCCNC(=N)N)NC(=O)[C@H](CCC(N)=O)NC(=O)[C@H](CC(C)C)NC(=O)[C@H](CCC(=O)O)NC(=O)[C@H](CCC(=O)O)NC(=O)[C@@H]1CCCN1C(=O)[C@H](CCC(=O)O)NC(=O)[C@H](C)NC(=O)[C@H](CC(=O)O)NC(=O)[C@H](CCC(=O)O)NC(=O)[C@H](CCC(=O)O)NC(=O)[C@@H]1CCCN1C(=O)[C@H](CCCCNC(=O)CCCCCNC(=O)CC[C@H](NC(=O)CCCCCCCCCCCCCCCCC(=O)O)C(=O)O)NC(=O)[C@H](C)NC(=O)[C@@H]1CCCN1C(=O)[C@H](C)NC(=O)CC(C)C)C(=O)N[C@@H](CO)C(=O)N[C@@H](CC(C)C)C(=O)N[C@@H](CCCNC(=N)N)C(=O)N[C@@H](Cc1c[nH]cn1)C(=O)N[C@@H](Cc1ccc(O)cc1)C(=O)N[C@@H](Cc1ccc(O)cc1)C(=O)N[C@@H](CC(N)=O)C(=O)N[C@@H](Cc1c[nH]c2ccccc12)C(=O)N[C@@H](CC(C)C)C(=O)N[C@H](C(=O)N[C@@H](CCCNC(=N)N)C(=O)N[C@@H](CCC(N)=O)C(=O)N[C@@H](CCCNC(=N)N)C(=O)N[C@@H](Cc1ccc(O)cc1)C(N)=O)[C@@H](C)O) [Compound 33]	2.53

Further binders by falling Ki, results first:

Ki [nM]	Binder
34.7	Isovaleryl-APEK([Ahx-γGlu-C18 diacid])PEEDATPEELQPYYVSLRHYYNWLTRQRY-NH2 (SMILES CC(C)CC(=O)N[C@@H](C)C(=O)N1CCC[C@H]1C(=O)N[C@@H](CCC(=O)O)C(=O)N[C@@H](CCCCNC(=O)CCCCCNC(=O)CC[C@H](NC(=O)CCCCCCCCCCCCCCCCC(=O)O)C(=O)O)C(=O)N1CCC[C@H]1C(=O)N[C@@H](CCC(=O)O)C(=O)N[C@@H](CCC(=O)O)C(=O)N[C@@H](CC(=O)O)C(=O)N[C@@H](C)C(=O)N[C@H](C(=O)N1CCC[C@H]1C(=O)N[C@@H](CCC(=O)O)C(=O)N[C@@H](CCC(=O)O)C(=O)N[C@@H](CC(C)C)C(=O)N[C@@H](CCC(N)=O)C(=O)N1CCC[C@H]1C(=O)N[C@@H](Cc1ccc(O)cc1)C(=O)N[C@@H](Cc1ccc(O)cc1)C(=O)N[C@H](C(=O)N[C@@H](CO)C(=O)N[C@@H](CC(C)C)C(=O)N[C@@H](CCCNC(=N)N)C(=O)N[C@@H](Cc1c[nH]cn1)C(=O)N[C@@H](Cc1ccc(O)cc1)C(=O)N[C@@H](Cc1ccc(O)cc1)C(=O)N[C@@H](CC(N)=O)C(=O)N[C@@H](Cc1c[nH]c2ccccc12)C(=O)N[C@@H](CC(C)C)C(=O)N[C@H](C(=O)N[C@@H](CCCNC(=N)N)C(=O)N[C@@H](CCC(N)=O)C(=O)N[C@@H](CCCNC(=N)N)C(=O)N[C@@H](Cc1ccc(O)cc1)C(N)=O)[C@@H](C)O)C(C)C)[C@@H](C)O) [Compound 31]
3.53	Isovaleryl-APEK([Ahx-γGlu-C18 diacid])PEEDASAEELQQYYVSLRHYYNWLTRQRY-NH2 (SMILES CC(C)CC(=O)N[C@@H](C)C(=O)N1CCC[C@H]1C(=O)N[C@@H](CCC(=O)O)C(=O)N[C@@H](CCCCNC(=O)CCCCCNC(=O)CC[C@H](NC(=O)CCCCCCCCCCCCCCCCC(=O)O)C(=O)O)C(=O)N1CCC[C@H]1C(=O)N[C@@H](CCC(=O)O)C(=O)N[C@@H](CCC(=O)O)C(=O)N[C@@H](CC(=O)O)C(=O)N[C@@H](C)C(=O)N[C@@H](CO)C(=O)N[C@@H](C)C(=O)N[C@@H](CCC(=O)O)C(=O)N[C@@H](CCC(=O)O)C(=O)N[C@@H](CC(C)C)C(=O)N[C@@H](CCC(N)=O)C(=O)N[C@@H](CCC(N)=O)C(=O)N[C@@H](Cc1ccc(O)cc1)C(=O)N[C@@H](Cc1ccc(O)cc1)C(=O)N[C@H](C(=O)N[C@@H](CO)C(=O)N[C@@H](CC(C)C)C(=O)N[C@@H](CCCNC(=N)N)C(=O)N[C@@H](Cc1c[nH]cn1)C(=O)N[C@@H](Cc1ccc(O)cc1)C(=O)N[C@@H](Cc1ccc(O)cc1)C(=O)N[C@@H](CC(N)=O)C(=O)N[C@@H](Cc1c[nH]c2ccccc12)C(=O)N[C@@H](CC(C)C)C(=O)N[C@H](C(=O)N[C@@H](CCCNC(=N)N)C(=O)N[C@@H](CCC(N)=O)C(=O)N[C@@H](CCCNC(=N)N)C(=O)N[C@@H](Cc1ccc(O)cc1)C(N)=O)[C@@H](C)O)C(C)C) [Compound 34]
1.4	Isovaleryl-APAK([Ahx-γGlu-C18 diacid])PEEAATPEELQRYYVSLRHYYNWLTRQRY-NH2 (SMILES CC(C)CC(=O)N[C@@H](C)C(=O)N1CCC[C@H]1C(=O)N[C@@H](C)C(=O)N[C@@H](CCCCNC(=O)CCCCCNC(=O)CC[C@H](NC(=O)CCCCCCCCCCCCCCCCC(=O)O)C(=O)O)C(=O)N1CCC[C@H]1C(=O)N[C@@H](CCC(=O)O)C(=O)N[C@@H](CCC(=O)O)C(=O)N[C@@H](C)C(=O)N[C@@H](C)C(=O)N[C@H](C(=O)N1CCC[C@H]1C(=O)N[C@@H](CCC(=O)O)C(=O)N[C@@H](CCC(=O)O)C(=O)N[C@@H](CC(C)C)C(=O)N[C@@H](CCC(N)=O)C(=O)N[C@@H](CCCNC(=N)N)C(=O)N[C@@H](Cc1ccc(O)cc1)C(=O)N[C@@H](Cc1ccc(O)cc1)C(=O)N[C@H](C(=O)N[C@@H](CO)C(=O)N[C@@H](CC(C)C)C(=O)N[C@@H](CCCNC(=N)N)C(=O)N[C@@H](Cc1c[nH]cn1)C(=O)N[C@@H](Cc1ccc(O)cc1)C(=O)N[C@@H](Cc1ccc(O)cc1)C(=O)N[C@@H](CC(N)=O)C(=O)N[C@@H](Cc1c[nH]c2ccccc12)C(=O)N[C@@H](CC(C)C)C(=O)N[C@H](C(=O)N[C@@H](CCCNC(=N)N)C(=O)N[C@@H](CCC(N)=O)C(=O)N[C@@H](CCCNC(=N)N)C(=O)N[C@@H](Cc1ccc(O)cc1)C(N)=O)[C@@H](C)O)C(C)C)[C@@H](C)O) [Compound 35]
